Here are results for two proteins from paper doi:10.1101/2024.03.07.583919 (bioRxiv, 2024).

Where a chain is given by its changes, count along the chain named. Names may count otherwise.

The series concerns the molecule itself. The experiment in a line: SEC. (SEC sorts molecules by how far they enter the pores of the column.)

B1: wild-type human GCAP1-E6S (Guanylate Cyclase Activating Protein 1), myristoylated (natural protein)
chain: MGNVMSGKSVEELSSTECHQWYKKFMTECPSGQLTLYEFRQFFGLKNLSPSASQYVEQMFETFDFNKDGYIDFMEYVAALSLVLKGKVEQKLRWYFKLYDVDGNGCIDRDELLTIIQAIRAINPCSDTTMTAEEFTDTVFSKIDVNGDGELSLEEFIEGVQKDQMLLDTLTRSLDLTRIVRRLQNGEQDEEGADEAAEAAG
modifications: myristoylated at the N-terminal (by S. cerevisiae N-myristoyltransferase)
In the case of B1, the binding result is reported as “binds”.

B2: E111V-GCAP1 (human GCAP1-E6S with the cone-rod dystrophy substitution E111V), myristoylated (natural protein)
chain: B1 chain with E111V
modifications: myristoylated at the N-terminal (by S. cerevisiae N-myristoyltransferase)
For the protein B2, the binding result is “binds”.
